One molecule from article PMC8829827, “Dynamics of Cations around DNA and Protein as Revealed by 23Na Diffusion NMR Spectroscopy” can be followed below.

In this series the target is Antp homeodomain (C39S) (fruit fly, UniProt P02833 297-356, C335S). The series is described as follows: 23Na diffusion NMR (Na+ release on complex formation); 1.10 mM protein, 1.52 mM DNA; 14.7 +/- 1.7 Na+ released per complex; sodium succinate buffer (20 mM Na+, 11.3 mM succinate), pH 5.8, 25 C. The following applies: protein: recombinant; blunt.
Antp homeodomain (C39S), sequence (P02833 297-356 C335S): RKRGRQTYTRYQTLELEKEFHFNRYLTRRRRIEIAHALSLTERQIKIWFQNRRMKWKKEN

B1: 15-bp DNA duplex with Antp recognition sequence (dsDNA)
DNA 1: AGAAAGCCATTAGAG
DNA 2: CTCTAATGGCTTTCT
Consider B1, for which the binding result was “binds”.
